Molecular target: Deg2 protease (Arabidopsis thaliana), mature Deg2 (Arabidopsis thaliana)
Assay: SEC + other: dynamic light scattering

- stoichiometry N: 6
Substance: Deg2 protease (Arabidopsis thaliana), mature Deg2 (enzyme)

— article PMC3481350
